Experimental data as given in article PMC4117486, “Investigation of Endoglin Wild-Type and Missense Mutant Protein Heterodimerisation Using Fluorescence Microscopy Based IF, BiFC and FRET Analyses” (PLoS ONE, 2014).

B1: endoglin wild-type, EYFP- or ECFP-tagged (receptor, human, UniProt P17813 26-658, looked up)
chain: ETVHCDLQPVGPERGEVTYTTSQVSKGCVAQAPNAILEVHVLFLEFPTGPSQLELTLQASKQNGTWPREVLLVLSVNSSVFLHLQALGIPLHLAYNSSLVTFQEPPGVNTTELPSFPKTQILEWAAERGPITSAAELNDPQSILLRLGQAQGSLSFCMLEASQDMGRTLEWRPRTPALVRGCHLEGVAGHKEAHILRVLPGHSAGPRTVTVKVELSCAPGDLDAVLILQGPPYVSWLIDANHNMQIWTTGEYSFKIFPEKNIRGFKLPDTPQGLLGEARMLNASIVASFVELPLASIVSLHASSCGGRLQTSPAPIQTTPPKDTCSPELLMSLIQTKCADDAMTLVLKKELVAHLKCTITGLTFWDPSCEAEDRGDKFVLRSAYSSCGMQVSASMISNEAVVNILSSSSPQRKKVHCLNMDSLSFQLGLYLSPHFLQASNTIEPGQQSFVQVRVSPSVSEFLLQLDSCHLDLGPEGGTVELIQGRAAKGNCVSLLSPSPEGDPRFSFLLHFYTVPIPKTGTLSCTVALRPKTGSQDQEVHRTVFMRLNIISPDLSGCTSKGLVLPAVLGITFGAFLIGALLTAALWYIYSHTRSPSKREPVVAVAAPASSESSSTNHSIGSTQSTPCSTSSMA
notes: endoglin (CD105), human, wild type; EYFP-tagged with the ECFP-tagged receptors and with soluble ECFP; ECFP-tagged with the EYFP-tagged mutants; both versions together for the homodimer; also called endoglin^wt-EYFP; endoglin^wt-ECFP; source: CHO cells, transiently co-transfected (50 ng of each construct per 100 000 cells), in living cells; not shown: EYFP (acceptor) or ECFP (donor), C-terminal, …
B2: endoglin S480C, EYFP-tagged (receptor, human, UniProt P17813 26-658, looked up)
chain: ETVHCDLQPVGPERGEVTYTTSQVSKGCVAQAPNAILEVHVLFLEFPTGPSQLELTLQASKQNGTWPREVLLVLSVNSSVFLHLQALGIPLHLAYNSSLVTFQEPPGVNTTELPSFPKTQILEWAAERGPITSAAELNDPQSILLRLGQAQGSLSFCMLEASQDMGRTLEWRPRTPALVRGCHLEGVAGHKEAHILRVLPGHSAGPRTVTVKVELSCAPGDLDAVLILQGPPYVSWLIDANHNMQIWTTGEYSFKIFPEKNIRGFKLPDTPQGLLGEARMLNASIVASFVELPLASIVSLHASSCGGRLQTSPAPIQTTPPKDTCSPELLMSLIQTKCADDAMTLVLKKELVAHLKCTITGLTFWDPSCEAEDRGDKFVLRSAYSSCGMQVSASMISNEAVVNILSSSSPQRKKVHCLNMDSLSFQLGLYLSPHFLQASNTIEPGQQSFVQVRVCPSVSEFLLQLDSCHLDLGPEGGTVELIQGRAAKGNCVSLLSPSPEGDPRFSFLLHFYTVPIPKTGTLSCTVALRPKTGSQDQEVHRTVFMRLNIISPDLSGCTSKGLVLPAVLGITFGAFLIGALLTAALWYIYSHTRSPSKREPVVAVAAPASSESSSTNHSIGSTQSTPCSTSSMA
notes: endoglin (CD105), human, missense mutant S480C (found in a Scottish HHT family); site-directed mutagenesis on pCMV5-endoglin wild type, moved into pEYFP-N1; also called mutant S480C; source: CHO cells, transiently co-transfected (50 ng of each construct per 100 000 cells), in living cells; not shown: EYFP, C-terminal, kept

Tests used:
Assay in all cases: FRET or BRET; microscopic FRET in living CHO cells, ECFP donor and EYFP acceptor, 50 ng of each construct per 100 000 cells, 24 h after transfection, HEPES buffered ringer solution; FRET index (FI) = FRET efficiency x area with FRET; FI<51 no interaction, 51-99 weak or false positive, >=100 interaction; at least 30 cells per sample
[1] = biological target: B2; settings: partners not purified
[2] = biological target: B1; settings: partners not purified
[3] = biological target: the molecule itself

Binder | % of cells clearly FRET-positive (FRET index >=100) [1] | % of cells in FRET index group 2 (FI 51-99, weak or false positive) [1] | mean FRET index of the positive cells [1] | % of cells clearly FRET-positive (FRET index >=100) [2] | % of cells in FRET index group 2 (FI 51-99, weak or false positive) [2] | mean FRET index of the positive cells [2] | % of cells clearly FRET-positive (FRET index >=100) [3] | mean FRET index of the positive cells [3] | % of cells in FRET index group 2 (FI 51-99, weak or false positive) [3]
ALK5, ECFP- or EYFP-tagged (receptor, UniProt P36897 34-503, looked up, ALK5, TGF-β type I receptor; The methods name only the EYFP version; the results use an ECFP-tagged version; also called ALK5-EYFP; source: CHO cells, transiently co-transfected, in living cells) LQCFCHLCTKDNFTCVTDGLCFVSVTETTDKVIHNSMCIAEIDLIPRDRPFVCAPSSKTGSVTTTYCCNQDHCNKIELPTTVKSSPGLGPVELAAVIAGPVCFVCISLMLMVYICHNRTVIHHRVPNEEDPSLDRPFISEGTTLKDLIYDMTTSGSGSGLPLLVQRTIARTIVLQESIGKGRFGEVWRGKWRGEEVAVKIFSSREERSWFREAEIYQTVMLRHENILGFIAADNKDNGTWTQLWLVSDYHEHGSLFDYLNRYTVTVEGMIKLALSTASGLAHLHMEIVGTQGKPAIAHRDLKSKNILVKKNGTCCIADLGLAVRHDSATDTIDIAPNHRVGTKRYMAPEVLDDSINMKHFESFKRADIYAMGLVFWEIARRCSIGGIHEDYQLPYYDLVPSDPSVEEMRKVVCEQKLRPNIPNRWQSCEALRVMAKIMRECWYANGAARLTALRIKKTLSQLSQQEGIKM | 13% | 30% | 129 FRET index | 36% | 16% | 243 FRET index |  |  | 
TβRII, ECFP- or EYFP-tagged (receptor, UniProt P37173 23-567, looked up, TβRII, TGF-β type II receptor; The methods name only the EYFP version; the results use an ECFP-tagged version; also called TβRII-EYFP; TGF-β type-II receptor; source: CHO cells, transiently co-transfected, in living cells) TIPPHVQKSVNNDMIVTDNNGAVKFPQLCKFCDVRFSTCDNQKSCMSNCSITSICEKPQEVCVAVWRKNDENITLETVCHDPKLPYHDFILEDAASPKCIMKEKKKPGETFFMCSCSSDECNDNIIFSEEYNTSNPDLLLVIFQVTGISLLPPLGVAISVIIIFYCYRVNRQQKLSSTWETGKTRKLMEFSEHCAIILEDDRSDISSTCANNINHNTELLPIELDTLVGKGRFAEVYKAKLKQNTSEQFETVAVKIFPYEEYASWKTEKDIFSDINLKHENILQFLTAEERKTELGKQYWLITAFHAKGNLQEYLTRHVISWEDLRKLGSSLARGIAHLHSDHTPCGRPKMPIVHRDLKSSNILVKNDLTCCLCDFGLSLRLDPTLSVDDLANSGQVGTARYMAPEVLESRMNLENVESFKQTDVYSMALVLWEMTSRCNAVGEVKDYEPPFGSKVREHPCVESMKDNVLRDRGRPEIPSFWLNHQGIQMVCETLTECWDHDPEARLTAQCVAERFSELEHLDRLSGRSCSEEKIPEDGSLNTTK | 3% | 10% | 147 FRET index | 62% | 18% | 293 FRET index |  |  | 
B1 |  |  |  |  |  |  | 100% | 373 FRET index | 
endoglin G52V, EYFP-tagged (with an ECFP-tagged copy for the homodimer) (receptor, human, UniProt P17813 26-658, looked up, endoglin (CD105), human, HHT1 missense mutant G52V; also called mutant G52V; source: CHO cells, transiently co-transfected (50 ng of each construct per 100 000 cells), in living cells; not shown: EYFP (acceptor) or ECFP (donor, homodimer only), C-terminal, kept) ETVHCDLQPVGPERGEVTYTTSQVSKVCVAQAPNAILEVHVLFLEFPTGPSQLELTLQASKQNGTWPREVLLVLSVNSSVFLHLQALGIPLHLAYNSSLVTFQEPPGVNTTELPSFPKTQILEWAAERGPITSAAELNDPQSILLRLGQAQGSLSFCMLEASQDMGRTLEWRPRTPALVRGCHLEGVAGHKEAHILRVLPGHSAGPRTVTVKVELSCAPGDLDAVLILQGPPYVSWLIDANHNMQIWTTGEYSFKIFPEKNIRGFKLPDTPQGLLGEARMLNASIVASFVELPLASIVSLHASSCGGRLQTSPAPIQTTPPKDTCSPELLMSLIQTKCADDAMTLVLKKELVAHLKCTITGLTFWDPSCEAEDRGDKFVLRSAYSSCGMQVSASMISNEAVVNILSSSSPQRKKVHCLNMDSLSFQLGLYLSPHFLQASNTIEPGQQSFVQVRVSPSVSEFLLQLDSCHLDLGPEGGTVELIQGRAAKGNCVSLLSPSPEGDPRFSFLLHFYTVPIPKTGTLSCTVALRPKTGSQDQEVHRTVFMRLNIISPDLSGCTSKGLVLPAVLGITFGAFLIGALLTAALWYIYSHTRSPSKREPVVAVAAPASSESSSTNHSIGSTQSTPCSTSSMA |  |  |  | 51% | 27% | 222 FRET index | ≥ 75% | 204 FRET index | 15%
B2 |  |  |  | 65% | 19% | 239 FRET index |  |  | 
